These results are taken from publication PMC11661108 (bioRxiv, 2024).

Values joined by “and” are separate entries in the source; they are usually repeats but may differ in a detail not shown here. Equal entries are not always repeated.

Targets include RBD of SARS-CoV-2 BA.1 (SARS-CoV-2 Omicron BA.1, strain, biotin (Avi tag)); RBD of SARS-CoV-2 EG.5.1 (SARS-CoV-2 Omicron EG.5.1, strain, biotin (Avi tag)); RBD of SARS-CoV-2 HV.1 (SARS-CoV-2 Omicron HV.1, strain, biotin (Avi tag)).
Holding throughout (assay): BLI

B1: Fab-52 (Fab, V domains shown)
VH: EVQLVQSGGDLAPPGGSLRLSCEASGIIVSSNYMTWVRQAPGKGLEWVSLIFAGGSTFYADSVKGRFTVSRDNSKNTLYLQMSSLKPEDTAVYFCARDLREMGGLDFWGQGALVTVSS
VL: DIQMTQSPSSVSASIGDTVTITCRASQGIPSWVAWYQQKPGKAPKLLIYGASNLQRGVPSRFSGSGSGTDFTLTISSLQPEDLAVYYCHQSDSLPGIFGGGTKVEIK
Consider B1, for which the equilibrium dissociation constant (Kd) – broadly, the constant that tells how readily two partners part at equilibrium – with RBD of SARS-CoV-2 BA.1 was 1.1 nM; with RBD of SARS-CoV-2 EG.5.1, 10 nM and 7 nM; with RBD of SARS-CoV-2 HV.1 it was 12.2 nM and 9.1 nM.
